# Experimental data published in PMC8880771, “Therapeutic antibody activation of the glucocorticoid-induced TNF receptor by a clustering mechanism” (Science Advances, 2022).
# Positions count from the first letter of the chain named. In names and notes the source's numbering stands.
# B1: mGITR_(ΔCTD-egfp) (domain or fragment, mouse, UniProt O35714 20-185, looked up)
# chain: QPSVVEEPGCGPGKVQNGSGNNTRCCSLYAPGKEDCPKERCICVTPEYHCGDPQCKICKHYPCQPGQRVESQGDIVFGFRCVACAMGTFSAGRDGHCRLWTNCSQFGFLTMFPGNKTHNAVCIPEPLPTEQYGHLTVIFLVMAACIFFLTTVQLGLHIWQLRRQHM
# notes: signal peptide in the construct; mouse GITR without the unstructured C-terminal residues C186-P228; also called CTD deletion construct; source: HEK293 cells, solubilized with DDM, in lysate; not shown: EGFP, C-terminal, kept; 1D4, C-terminal, kept
# B2: mGITR_(ΔCTD-egfp)-C164A (domain or fragment, mouse, UniProt O35714 20-185, looked up)
# chain: B1 chain with C145A
# notes: signal peptide in the construct; mouse GITR without the C-terminal residues C186-P228, with C164A; also called C164A mutant; source: HEK293 cells, solubilized with DDM, in lysate; not shown: EGFP, C-terminal, kept; 1D4, C-terminal, kept
# B3: full-length mouse GITR ligand (mGITRL) (ligand, UniProt Q7TS55 1-173, looked up)
# chain: MEEMPLRESSPQRAERCKKSWLLCIVALLLMLLCSLGTLIYTSLKPTAIESCMVKFELSSSKWHMTSPKPHCVNTTSDGKLKILQSGTYLIYGQVIPVDKKYIKDNAPFVVQIYKKNDVLQTLMNDFQILPIGGVYELHAGDNIYLKFNSKDHIQKTNTYWGIILMPDLPFIS
# notes: mouse GITRL, full-length gene with transmembrane region, in pEZT-BM; the oligomeric state of the full-length protein was not measured here; source: HEK293S GnTI- suspension cells (BacMam), solubilized in DDM, purified (StrepTrap HP, Superose 6)
# B4: full-length mouse GITR fused to EGFP at its C terminus (mGITR_(egfp)), purified (receptor, UniProt O35714 20-228, looked up)
# chain: QPSVVEEPGCGPGKVQNGSGNNTRCCSLYAPGKEDCPKERCICVTPEYHCGDPQCKICKHYPCQPGQRVESQGDIVFGFRCVACAMGTFSAGRDGHCRLWTNCSQFGFLTMFPGNKTHNAVCIPEPLPTEQYGHLTVIFLVMAACIFFLTTVQLGLHIWQLRRQHMCPRETQPFAEVQLSAEDACSFQFPEEERGEQTEEKCHLGGRWP
# modifications: intersubunit disulfide bond at Cys55
# notes: signal peptide in the construct; mouse GITR, full-length gene in pEZT-BM, followed by a thrombin cleavage site, EGFP and 8x His; Cys14 lies in the predicted signal peptide and is not in the mature protein; last residue P228; Disulfide-linked dimer by cryo-EM; EGFP fluorescence was monitored in FSEC; also called glucocorticoid-induced TNF receptor; source: HEK293S GnTI- suspension cells (BacMam), …
# B5: full-length mGITR_(egfp) with C-terminal 1D4 tag, in HEK293 lysate (receptor, mouse, UniProt O35714 20-228, looked up)
# chain: B4 chain
# modifications: intersubunit disulfide bond at Cys55
# notes: signal peptide in the construct; mouse GITR, full length (to P228), followed by EGFP and a 1D4 tag; May be the same construct as m1; the methods name an 8x His tag for the purified protein, the results a 1D4 tag for all constructs analysed in lysate; source: HEK293 cells, solubilized with DDM, in lysate; not shown: EGFP, C-terminal, kept; 1D4, C-terminal, kept
# Legend:
# [1] = molecular target: the molecule itself; assay: non-reducing SDS-PAGE with anti-1D4 Western blot; lysate, nonreduced (-DTT); denaturing SDS-PAGE, shows only covalent dimers
# [2] = molecular target: B4; assay: SEC; FSEC of purified proteins mixed with mGITR_(egfp), EGFP fluorescence (tryptophan fluorescence as control), Superose 6 Increase 10/300 GL, 20 mM tris pH 8.0, 300 mM NaCl, 0.5 mM DDM; molar ratio 1:15:4:2 for mGITR_(egfp):mGITRL:Fab:IgG; conditions: both partners purified
# [3] = molecular target: the molecule itself; assay: cryo-EM structure; mGITR_(egfp)/DTA-1 Fab complex in DDM, single-particle cryo-EM, global resolution 4.4 Å
Binder,stoichiometry N [1],other results
B1,2,
B2,2,
B3,,binding result [2]: binds
B4,,stoichiometry N [3]: 2
B5,2,
